Patent US20120149879A1 (published 2012)

B1: scFab-XGFR2_2720 (bispecific antibody)
chain 1: not shown
chain 2: DIQMTQSPSSLSASVGDRVTITCRASQGINNYLNWYQQKPGKAPKRLIYNTNNLQTGVPSRFSGSGSGTEFTLTISSLQPEDFATYYCLQHNSFPTFGQGTKLEIKRTVAAPSVFIFPPSDEQLKSGTASVVCLLNNFYPREAKVQWKVDNALQSGNSQESVTEQDSKDSTYSLSSTLTLSKADYEKHKVYACEVTHQGLSSPVTKSFNRGEC
B2: humanized rat anti-EGFR antibody ICR62 with VH of SEQ ID NO: 8, and VL of SEQ ID NO: 10 (antibody, V domains shown)
VH: QVQLVQSGAEVKKPGSSVKVSCKASGFTFTDYKIHWVRQAPGQGLEWMGYFNPNSGYSTYAQKFQGRVTITADKSTSTAYMELSSLRSEDTAVYYCARLSPGGYYVMDAWGQGTTVTVSS
VL: DIQMTQSPSSLSASVGDRVTITCRASQGINNYLNWYQQKPGKAPKRLIYNTNNLQTGVPSRFSGSGSGTEFTLTISSLQPEDFATYYCLQHNSFPTFGQGTKLEIKR
notes: Parent monospecific 'wildtype' IgG; also called <EGFR>ICR62; <EGFR> ICR62

Legend:
IGF-1R = molecular target: T1, IGF-1R (UniProt P08069 31-932, limits assumed); experiment: SPR (Biacore T100), antibody captured by anti-human IgG on C1 chip, IGF-1R injected, 25 C
T1 construct: Analyte in the Biacore assays; also called IGF-IR; insulin-like growth factor I receptor

EGFR-ECD [1] = molecular target: T2, EGFR-ECD (human, UniProt P00533 25-645); experiment: SPR (Biacore T100), antibody captured by anti-human IgG on C1 chip, EGFR-ECD injected, 25 C
T2 construct: extracellular domain; Analyte in the Biacore assays; also called human epidermal growth factor receptor; HER-1
Protocol: Capturing anti-human IgG antibody was immobilized on the surface of a C1 biosensorchip using amine-coupling chemistry. […] A reference control flow cell was treated in the same way but with vehicle buffers only instead of the capturing antibody. Surfaces were blocked with an injection of 1 M ethanolamine/HCl pH 8.5. The bispecific antibodies were diluted in HBS-P and injected at a flow rate of 5 μl/min. The contact time (association phase) was 1 min for the antibodies at a concentration between 1 and 5 nM. EGFR-ECD was injected at increasing concentrations of 1.2, 3.7, 11.1, 33.3, 100 and 300 nM, IGF-1R at concentrations of 0.37, 1.11, 3.33, 10, 30 and 90 nM. The contact time (association phase) was 3 min, the dissociation time (washing with running buffer) 5 min for both molecules at a flowrate of 30 μl/min. All interactions were performed at 25° C. (standard temperature). The regeneration solutions of 0.85% phosphoric acid and 5 mM sodium hydroxide were injected each for 60 s at 5 μl/min flow to remove any non-covalently bound protein after each binding cycle. Signals were detected at a rate of one signal per second. Samples were injected at increasing concentrations.

EGFR-ECD [2] = molecular target: T2, EGFR-ECD; experiment: SPR (Biacore T100), antibody captured by anti-human IgG on CM5 chip, EGFR-ECD injected, 25 C
Protocol: A reference control flow cell was treated in the same way but with vehicle buffers only instead of the capturing antibody. Surfaces were blocked with an injection of 1 M ethanolamine/HCl pH 8.5. The bispecific antibodies were diluted in HBS-P and injected at a flow rate of 5 μl/min. […] The contact time (association phase) was 3 min, the dissociation time (washing with running buffer) 5 min for both molecules at a flowrate of 30 μl/min. All interactions were performed at 25° C. (standard temperature). […] Signals were detected at a rate of one signal per second. Samples were injected at increasing concentrations.

Binder	Kd (IGF-1R)	Kd (EGFR-ECD [1])	Kd (EGFR-ECD [2])
B1	11 nM	0.5 nM	–
B2	–	0.5 nM	3 nM
